Conditions: Saccharolobus solfataricus (strain ATCC 35092 / DSM 1617 / JCM 11322 / P2), Thermal, CD, phosphate 10 mM, reversible: yes, whole UniProt chain shown

B1: DNA-binding protein 7d wild type, P39476 (protein)
chain: MATVKFKYKGEEKEVDISKIKKVWRVGKMISFTYDEGGGKTGRGAVSEKDAPKELLQMLEKQKK
Question: With B1 as the protein, how does the Tm (pH 3) read?
Answer: The Tm was 80 °C.

Question: And the “unfolding enthalpy (van 't Hoff)” value (pH 3)?
Answer: The value was 50.2 kcal/mol.

Question: And the Tm (pH 4)?
Answer: Its Tm is 95 °C.

Question: And the “unfolding enthalpy (van 't Hoff)” value (pH 4)?
Answer: Its value is 57.4 kcal/mol.

Question: What about the Tm (pH 5) of the same protein?
Answer: Its Tm is 98.5 °C.

Question: And the “unfolding enthalpy (van 't Hoff)” value (pH 5)?
Answer: The value was 62.1 kcal/mol.

Question: What about the Tm (pH 6) of the same protein?
Answer: The Tm was 99 °C.

Question: And the “unfolding enthalpy (van 't Hoff)” value (pH 6)?
Answer: The value was 64.5 kcal/mol.

Question: What about the Tm (pH 7) of the same protein?
Answer: Its Tm is 98 °C.

Question: What about the “unfolding enthalpy (van 't Hoff)” value (pH 7) of the same protein?
Answer: The value was 64.5 kcal/mol.

Question: And the Tm (pH 8)?
Answer: Its Tm is 97.5 °C.

Question: What about the “unfolding enthalpy (van 't Hoff)” value (pH 8) of the same protein?
Answer: Its value is 62.1 kcal/mol.

Question: And the Tm (pH 9)?
Answer: Its Tm is 97 °C.

Question: And the “unfolding enthalpy (van 't Hoff)” value (pH 9)?
Answer: The value was 59.8 kcal/mol.

Source: FireProtDB (doi:10.1021/bi034520t)
